Data from US12064469B2, “Stable peptide compositions” (TearSolutions, Inc., priority 2017, dated 2024).
Entries after “also recorded” stand apart in the source; their conditions may differ.

Experiment: Comparative Lacripep stability in PBS vs citrate buffer at 60° C. by MALDI TOF mass spectrometry
Format: physicochemical
Conditions: 2 weeks
Experimental: FIGS. 1A and 1B illustrate the stability of Lacripep™ (SEQ ID NO: 1) (0.001%) in phosphate buffered saline (PBS), pH 4.5 and 7.0. The Lacripep™ solutions were analyzed by MALDI TOF mass spectrometry at time 0 (FIG. 1A) and after two weeks (FIG. 1B) at 60° C.
The Lacripep™ solutions were analyzed by MALDI TOF mass spectrometry at time 0 (FIG. 2A) and after two weeks (FIG. 2B) at 60° C.
Lacripep™ (SEQ ID NO. 1) stability was assessed in PBS at pH 4.5 and 7.0 (FIG. 1) and citrate buffer at pH 6.0 and 6.5 (FIG. 2). The initial concentration of Lacripep™ was 0.001%, and each trial was run at 60° C. The stability was assessed using MALDI TOF mass spectrometry at the initiation of the experiment (week 0, FIGS. 1A and 2A) and after two weeks (week 2, FIGS. 1B and 2B).

Ac-Lys-Gln-Phe-Ile-Glu-Asn-Gly-Ser-Glu-Phe-Ala-Gln-Lys-Leu-Leu-Lys-Lys-Phe-Ser-NH2 (Ac-KQFIENGSEFAQKLLKKFS-NH2; listed as Homo sapiens) [Lacripep™]
stability (Lacripep peak, MALDI TOF) (PBS pH 4.5, 0.001% Lacripep): significant degradation; also recorded: a degradation product becomes apparent; also recorded: An additional degradation product is seen
stability (Lacripep peak, MALDI TOF) (PBS pH 7.0, 0.001% Lacripep): significant degradation; also recorded: a degradation product becomes apparent
stability (Lacripep peak, MALDI TOF) (citrate buffer pH 6.0, 0.001% Lacripep): no change in the intensity of the Lacripep™ peak
stability (Lacripep peak, MALDI TOF) (citrate buffer pH 6.5, 0.001% Lacripep): no change in the intensity of the Lacripep™ peak
